# Laboratory results as given in patent US20200199207A1.
# Residue numbers refer to the chain shown, from its start.
# B1: h37D5 (antibody, V domains shown)
# VH: EEQLVESGGRLLRPGESLSLSCAAVGFNFGDFGMAWVRQPPGKGLEWVAGINWSGHSTGFVDSMKGRLTISRDSAKSSLFLQMNSLRGEDTAVYYCARVGRLCSGDICDSMGAFDLWGQGTMVTVSS
# VL: DIQMTQSPSTLSASIGDRVTITCRASQTIDNWLAWYQQRPGKAPKLLIYQASSLQSGVSSRFRGSGSGTEFTLTITSLQPDDFATYYCQKSNGYSRTFGQGTKVEIK
# B2: hm12G10 (antibody, V domains shown)
# VH: EVQLLESGGRLLRPGGSLSLSCVASGFYFGDFGMSWVRQVPGKGLEWVSGIDWSGRSTGYVDSMKGRLTISRDNDKSSLYLQMNDLRGEDTAVYYCARVGRLCSGDSCDSMGAFDLWGQGTMVTVSS
# VL: B1 VL with M4L, R18S, T28N, R39K, K45R, Q50K, Q55G, R61K, S67F, E105D
# B3: h12G10 (antibody, human IgG1, V domains shown)
# VH: B2 VH
# VL: B1 VL with M4L, R18S, T28N, R39K, K45R, Q50K, Q55G, R61K, S67F, E105D
# B4: hm37D5 (antibody, V domains shown)
# VH: B1 VH
# VL: B1 VL
# B5: h32B10 (antibody, V domains shown)
# VH: QVQLVQSGAEVKKPGASVKVSCRASGYIFRNFDINWVRQATGQGLEWMGWMSPKSGDTGYAQKFQGRVTMTRDTSINTAYMELSSLTSEDSAVYYCARGVDGTNWGQGTRVTVSS
# VL: DIVMTQSPDSLGVSLGERATISCKSSQSILDNSNNKNFIAWFQQKPGQPPKLLIYWASARESGVPDRFSGSGSGTEFTLTINSLQAEDVAVYYCYQYYSTPHTFGQGTKLDLR
# B6: h7G6 (antibody, V domains shown)
# VH: QVQLVESGGGVVQPGRSLRLSCAASGIAFNDYTMHWVRRSPDKGLEWVAAISYGGTNKYYADSVKGRFTISRDSSKNTLFLQMDSLRVEDTAVYYCARDSGYRSLLHWGQGTLVTVSS
# VL: EIVLTQSPLSLPVTPGEPASISCRSSQSLVHRNGYNYLDWYLQKPGQSPQLLIYMASKRASGVPDRFSGSGSGTEFTLKISRVEAEDVGIYYCMQALQTWTFGQGTKVEVN
# B7: h2F8 (antibody, V domains shown)
# VH: EVQLVESGGGLVKPGGSLRLSCAASGFIFSDYNMNWVRQAPGKGLEWVSSITRSSRTIYYADSVKGRFTISRDNAKNSLHLQMNSLRDADTAVYYCAREDFDVSTGPYYMDVWGNGTTVIVSS
# VL: EIVLTQSPGTLSLSPGERATLSCRASQSVSNMFLVWYQQKPGQAPRLLMYGASTRATDIPDRFSGSGSGTDFTLTISRLEPEDFAVYYCQQNGNSPYTFGQGTKLEIK
# Biological target: natural peanut extract
# Test: ELISA, antigen-coated plate
row,EC50,Binder
1,6.5 ng/mL,B1
2,8.5 ng/mL,B2
3,8.1 ng/mL,B3
4,7.1 ng/mL,B4
5,4.8 ng/mL,B5
6,2.8 ng/mL,B6
7,2.8 ng/mL,B7
